Settings in all cases: 10 mM Tris-HCl pH 7.5, 50 mM NaCl, 1 mM MgCl2, 0.5 mM EDTA, 0.5 mM DTT, 0.05 mg/ml poly(dI-dC), room temperature, 30 min; footprinting: same buffer, then …
The subject of data set [1] is T1, His-AphA (Vibrio parahaemolyticus RIMD 2210633), ORF:4cf93ac0.
T1 sequence: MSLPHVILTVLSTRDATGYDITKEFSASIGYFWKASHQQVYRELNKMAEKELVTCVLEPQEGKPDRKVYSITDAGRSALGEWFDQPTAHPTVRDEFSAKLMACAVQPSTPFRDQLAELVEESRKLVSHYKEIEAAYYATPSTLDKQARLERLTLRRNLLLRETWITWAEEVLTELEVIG
In words: DNase I footprinting.

For data set [2], the target named is T2, His-OpaR (Vibrio parahaemolyticus RIMD 2210633) (UniProt Q79YV4).
T2 sequence: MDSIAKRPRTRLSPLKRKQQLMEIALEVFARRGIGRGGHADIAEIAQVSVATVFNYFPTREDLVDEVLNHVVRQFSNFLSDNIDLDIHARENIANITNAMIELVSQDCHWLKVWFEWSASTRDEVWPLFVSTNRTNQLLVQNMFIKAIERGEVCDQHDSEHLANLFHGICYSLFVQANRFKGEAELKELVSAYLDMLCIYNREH
In words: DNase I footprinting.

For data set [3], the system named is T1, His-AphA (Vibrio parahaemolyticus RIMD 2210633), ORF:4cf93ac0. In words: EMSA. (In general: A gel shift assay detects complexes by their altered migration in electrophoresis.)
Data set [4] addresses T2, His-OpaR (Vibrio parahaemolyticus RIMD 2210633). Kind of data set: EMSA.

For the sequence “GAGTTGCTTCATAATAACTATTATTAGTTATAAATATCGCTTAATTTAAATCTAATTTAAAGATATAAAGGAGCGTATTTAAAATGAAGTTTTTGATACATCAATCATTAATTATCATTATTCAGATAATTTAATTAATACGAAATATGTCAATTAATAATGCTCTAGGAGATTAGCATGCAGTCTAATACGTATCTTAAATACGCAGATATTAAAGGTGAAGCGACAGCGGAAC (double strand) [VPA1027 (hcp2) promoter footprinting probe]”, the binding result was “no binding” in data set [1] and “binds” in data set [2].

As for “TTGTGGAAACTCGTTATGGTCAATACCAATTTCATGAAAAACCTCGCCAAAGACCTGCTAAATATTTATATATCGATTTTTATAATTAGATTTGAAGCTTTAATTATTAACATTAAGATTAATAGAGTTCTTATAGCTGTTATAAAAACTATTGACGGCATAATGAATCATTTTTTTATCAAAGCAATCATGAATTGTTGAACAATTTTAAATATCCAACCAGGTTCAAATTTTTGACACTCAAACTTTCACCCGTCAA (double strand) [VPA1044 promoter probe (EMSA and footprinting)]”, the binding result is “no binding” in data set [3], “binds” in data set [4], “no binding” in data set [1] and “binds” in data set [2].

Turning to “AGCGGAGTCTTGTTTATTAACGTTTTTAGCGGGTTCAATTGCATTTTCTCTTTTTTGAGTCTTTACAATTTTTGTTTTATCTCCGCTATCGCTGCTATTTATAGATTTGTCTTTATTTTTTTCTTCCATCACAAGGACTCCATATAAATGATGGGGTTAATATATATATTCCTGCTAAATGAAAAATACTTCGGTTAGATTTTCTCG (double strand) [VPA1043 promoter probe (EMSA and footprinting)]”, the binding result in data set [3] is recorded as “no binding”; in data set [4] it was “binds”; in data set [1], “no binding”; in data set [2], “binds”.

These data come from PMC3744643.
